Measured values from PMC2887783 (2010).

B1: AIP4 PRR/WWI-IV 155-486 (protein)
chain: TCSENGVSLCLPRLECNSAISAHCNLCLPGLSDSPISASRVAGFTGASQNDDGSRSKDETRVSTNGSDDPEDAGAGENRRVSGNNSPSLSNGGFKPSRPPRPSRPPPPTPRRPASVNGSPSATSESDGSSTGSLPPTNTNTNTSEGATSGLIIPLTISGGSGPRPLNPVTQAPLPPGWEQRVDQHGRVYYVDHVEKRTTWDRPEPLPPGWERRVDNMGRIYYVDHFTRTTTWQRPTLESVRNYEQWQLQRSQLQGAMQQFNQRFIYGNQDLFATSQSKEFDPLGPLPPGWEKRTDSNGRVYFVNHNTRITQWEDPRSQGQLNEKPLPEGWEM

Tests used:
AIP4 PRR/WWI-IV 155-486 [1] = target: B1; experiment: ELISA
AIP4 PRR/WWI-IV 155-486 [2] = target: B1; experiment: competition ELISA
AIP4 PRR/WWI-IV 155-486 [3] = target: B1; experiment: competition ELISA; remark: listed apart in the source
AIP4 HECT domain HECT = AIP4 HECT domain HECT (Homo sapiens, UniProt Q96J02); experiment: ELISA
AIP4 HECT domain HECT, sequence (Q96J02 566-903): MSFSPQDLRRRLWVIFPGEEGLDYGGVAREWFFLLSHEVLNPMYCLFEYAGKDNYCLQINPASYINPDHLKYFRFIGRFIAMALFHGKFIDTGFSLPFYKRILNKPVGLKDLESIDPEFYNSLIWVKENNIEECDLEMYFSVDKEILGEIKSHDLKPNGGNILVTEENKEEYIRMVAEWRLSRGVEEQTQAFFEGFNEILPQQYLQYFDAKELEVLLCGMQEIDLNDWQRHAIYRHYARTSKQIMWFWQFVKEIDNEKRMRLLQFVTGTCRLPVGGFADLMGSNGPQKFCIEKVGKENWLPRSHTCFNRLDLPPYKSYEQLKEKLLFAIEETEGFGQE

AIP4 PRR/WWI-IV 155-486, sequence (Q96J02 155-486): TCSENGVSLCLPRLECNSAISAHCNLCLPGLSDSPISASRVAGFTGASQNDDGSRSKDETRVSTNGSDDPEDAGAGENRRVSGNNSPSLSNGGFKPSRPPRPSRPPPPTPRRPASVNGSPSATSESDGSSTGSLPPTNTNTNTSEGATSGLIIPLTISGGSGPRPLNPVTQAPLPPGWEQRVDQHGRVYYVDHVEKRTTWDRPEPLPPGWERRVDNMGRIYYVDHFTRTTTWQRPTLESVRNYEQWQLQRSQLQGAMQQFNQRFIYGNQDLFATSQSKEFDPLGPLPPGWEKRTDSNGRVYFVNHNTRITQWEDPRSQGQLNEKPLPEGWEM

| Kd (AIP4 PRR/WWI-IV 155-486 [1]) | Ki (AIP4 PRR/WWI-IV 155-486 [2]) | IC50 (AIP4 PRR/WWI-IV 155-486 [3]) | Kd (AIP4 HECT domain HECT) | Binder |
| --- | --- | --- | --- | --- |
| 0.34 µM | 0.21 µM | 0.56 µM |  | spartin 155-367 (protein) APASLSLPSQSCPAEAPPAYTPQAAEGHYTVSYGTDSGEFSSVGEEFYRNHSQPPPLETLGLDADELILIPNGVQIFFVNPAGEVSAPSYPGYLRIVRFLDNSLDTVLNRPPGFLQVCDWLYPLVPDRSPVLKCTAGAYMFPDTMLQAAGCFVGVVLSSELPEDDRELFEDLLRQMSDLRLQANWNRAEEENEFQIPGRTRPSSDQLKEASGT |
|  |  |  | 2 µM | B1 |
